Test results reported in patent US20070071742A1 (PERLAN THERAPEUTICS, published 2007).
Changes are numbered by the printed parent chain.

B1: HumA humanized 1A6 scFv (scFv, not shown: large carriers)
scFv: DIQMTQSPSSLSASVGDRVTITCRASQSISNNLHWYQQKPGKAPKLLIYHASQSISGVPSRFSGSGSGTDFTLTISSLQPEDFATYYCQQSNSWPYTFGQGTKVEIKRGGGGSGGGGSGGGGSGGGGSEVQLVESGGGLVQPGGSLRLSCAASGFNIKDTYIHWVRQAPGKGLEWVARIDPANDNTIYADSVKGRFTISSDDSKNTAYLQMNSLRAEDTAVYYCTDSGYWFAYWGQGTLVTVSS
B2: HumC humanized 1A6 scFv (scFv, not shown: large carriers)
scFv: B1 scFv with S200G, D226T
B3: HumB humanized 1A6 scFv (scFv, not shown: large carriers)
scFv: B1 scFv with D226A

What follows are binders tested against ICAM-1 on HeLa cells (UniProt P05362 28-532, limits assumed) (assay: cell-based or functional assay).
Chain of ICAM-1 on HeLa cells (P05362 28-532 limits assumed): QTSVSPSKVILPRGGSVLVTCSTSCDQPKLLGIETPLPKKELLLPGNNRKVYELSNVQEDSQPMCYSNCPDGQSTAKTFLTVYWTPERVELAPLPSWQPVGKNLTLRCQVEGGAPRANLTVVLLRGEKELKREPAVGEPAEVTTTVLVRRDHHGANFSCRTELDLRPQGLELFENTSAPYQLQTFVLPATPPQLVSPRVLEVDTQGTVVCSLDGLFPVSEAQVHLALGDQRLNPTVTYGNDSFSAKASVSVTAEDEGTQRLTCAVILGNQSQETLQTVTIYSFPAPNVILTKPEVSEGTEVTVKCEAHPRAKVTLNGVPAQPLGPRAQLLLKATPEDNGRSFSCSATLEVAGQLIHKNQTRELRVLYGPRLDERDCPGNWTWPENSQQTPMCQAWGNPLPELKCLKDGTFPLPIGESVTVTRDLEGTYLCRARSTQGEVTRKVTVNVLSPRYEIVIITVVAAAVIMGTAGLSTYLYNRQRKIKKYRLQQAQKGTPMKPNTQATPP

| Binder | EC 50 (µM): 50% protection of HeLa cells against HRV15 infection at 1 MOI [µM] |
| --- | --- |
| B1 | 2.8 |
| B2 | 0.22 |
| B3 | 0.19 |
